Numbering of substitutions follows the chain as printed. Square brackets hold non-standard residues; d marks the D form. Ends that are not written are not given here. pT = C[C@@H](OP(=O)(O)O)[C@H](N)C(=O)O
Assays:
[1] = biological target: ScBub1^289–359–Bub3 complex (S. cerevisiae) (UniProt P41695); assay: ITC; 25°C, MicroCal ITC200; 20 mM Tris pH7.5, 150 mM NaCl, 1 mM DTE; Bub1^289–359–Bub3 in the cell at 30 µM, titrated with thirty-five 2-µl injections of peptide at 400 µM; single-site binding model
[2] = biological target: T1, Bub1^289–359–R314A–Bub3 (Saccharomyces cerevisiae, UniProt P26449+P41695, R314A); type: binding; settings: ITC; Bub3-Bub1^R314A mutant compared to wild type Bub3–Bub1; MELT4^P: data not shown
T1 construct: S. cerevisiae Bub1^289–359 and for full length Bub3; ITC experiment with the MELT2^P peptide and the Bub1^289–359–R314A–Bub3 complex; GST (N, cleaved yes); made in house; host or cells: E. coli BL21 DE3 plysS
From the text: Such function of Bub1 is probably exerted primarily through its structuring effects on the 4-stranded β-sheet ‘roof’ that dominates the peptide-binding region of Bub3 and which restrains the position of the positively charged residues in the ‘north’ area of the MELT^P-binding site (Figure 4E). Additionally, we observe that Arg314^Bub1, in the β1-β2 loop, contributes to the interaction with the phosphate group of P-Thr172^Spc105/Knl1 (the interaction, however, is only observed in one of the two complexes in the asymmetric unit, and in proximity of a crystal contact) and is therefore directly engaged in the interaction with the MELT2^P peptide. In ITC measurements, we observed a ∼fourfold reduction in the binding affinity of the Bub3-Bub1^R314A mutant for the MELT2^P peptide, in agreement with a role of Arg314^Bub1 is in the interaction of the Bub1-Bub3 complex with MELT2^P (Figure 4F). Similarly, Bub3–Bub1^R314A bound the MELT4^P with ∼threefold decreased affinity compared to wild type Bub3–Bub1 (data not shown).
Binding isotherm was measured at 25°C by isothermal titration calorimetry on a MicroCal ITC200 device (GE Healthcare, Piscataway, NJ). All samples were extensively dialysed into fresh GF buffer (20 mM Tris pH7.5, 150 mM NaCl, 1 mM DTE). […]

[3] = biological target: T2, Bub1^289–359–Bub3 (Saccharomyces cerevisiae, UniProt P26449+P41695); assay: ITC binding of MELT peptides to Bub1^289–359–Bub3 (wild type); settings: 25°C, 20 mM Tris pH7.5, 150 mM NaCl, 1 mM DTE, complex 30 µM in cell, peptide 400 µM
T2 construct: S. cerevisiae Bub1^289–359 and for full length Bub3; GST (N, cleaved yes); made in house; host or cells: E. coli BL21 DE3 plysS
T2 sequence (P26449 1-341): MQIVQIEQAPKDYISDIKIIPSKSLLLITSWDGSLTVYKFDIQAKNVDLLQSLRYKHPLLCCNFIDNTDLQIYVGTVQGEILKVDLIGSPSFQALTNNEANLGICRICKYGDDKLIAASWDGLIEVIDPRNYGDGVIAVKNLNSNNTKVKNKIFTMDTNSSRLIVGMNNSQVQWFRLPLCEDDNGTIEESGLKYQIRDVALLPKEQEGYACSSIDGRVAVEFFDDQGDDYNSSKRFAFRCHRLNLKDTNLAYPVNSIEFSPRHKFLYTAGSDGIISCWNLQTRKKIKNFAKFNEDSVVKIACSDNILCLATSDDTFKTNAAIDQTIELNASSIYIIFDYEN
T2 sequence (P41695 289-359): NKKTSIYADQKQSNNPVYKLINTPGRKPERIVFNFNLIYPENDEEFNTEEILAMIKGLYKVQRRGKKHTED
From the text: We generated recombinant ScBub1^289–359–Bub3 (where the Bub1 segment is equivalent to the minimal kinetochore targeting region of human Bub1 [[Krenn et al., 2012]]) by bacterial co-expression and purified it to homogeneity (Figure 1D). To assess whether Bub1–Bub3 binds directly to MELT^P sequences, we tested its ability to bind MELT sequences in quantitative isothermal titration calorimetry (ITC) binding experiments. 19-residue synthetic peptides encompassing the sequences of the second and fourth MELT^P motifs of Spc105/Knl1 (indicated as MELT2 and MELT4, respectively), each flanked by four and eleven residues on the N- and C-terminal ends, respectively, were tested (Figure 1C). […] Thus, ScBub1^289–359–Bub3 is sufficient for the reconstitution of tight interactions with two MELT^P peptides in vitro that recapitulate a salient feature of this interaction, its dependency on phosphorylation.
cDNA sequences coding for S. cerevisiae Bub1^289–359 and for full length Bub3 were subcloned in the first and second cassettes of pGEX-6P-2rbs vector ([Ciferri et al., 2005]). In this construct, the cDNA encoding Bub1^289–359 was sub-cloned in frame with the gene encoding GST and a cleavage site for PreScission protease, and was translated from the first ribosome-binding site (rbs). Untagged Bub3 was subcloned downstream of the second rbs in the same vector. Expression was carried out in BL21 DE3 plysS cells in LB medium by auto-induction with 0.3% lactose at 18°C for approximately 16 hr. Cells were harvested by centrifugation and resuspended in Buffer A (20 mM Tris pH 7.5, 300 mM NaCl, 10% Glycerol, 1 mM DTE, 1 mM EDTA pH 8.0, 1 mM PMSF) typically at a dilution of 3 ml lysis buffer per ml of bacterial pellet. Cells were lysed by sonication, and the lysates were cleared by centrifugation at 75000 × g for 45 min. The resulting clear supernatant was incubated with gentle rotation with 1/50 (vol/vol) of GSH-sepharose slurry (GE Healthcare) for 1–2 hr at 4°C. Beads were washed with 150 vol of Buffer A. To elute the Bub1–Bub3 complex from beads, GST-PreScission protease (0.02 mg/mg of protein target) was added for 16 hr at 4°C. The eluate was concentrated on Amicon Ultra Centrifugal Filters MwCO 3000 (Merck Millipore, Billerica, MA) and further purified by size exclusion chromatography (SEC) on a Superdex 75 16/60 column using GF buffer (20 mM Tris pH 7.5, 150 mM NaCl, 1 mM DTE). The complex eluted in a single peak with apparently stoichiometric amounts of Bub1^289–359 and Bub3 and was subsequently concentrated to ∼10 mg/ml for crystallization or to 2–4 mg/ml for ITC experiments. […]
Binding isotherm was measured at 25°C by isothermal titration calorimetry on a MicroCal ITC200 device (GE Healthcare, Piscataway, NJ). […]

[4] = biological target: T3, Bub1^289–359–R314A–Bub3 complex (S. cerevisiae, UniProt P41695 289-359; P26449 1-341, R314A); assay: ITC; data not shown; method taken from the sentence before it (ITC measurements); settings: both partners purified
T3 construct: Bub3, S. cerevisiae, full length; Probably GST-tagged on Bub1 and cleaved as the wild type; also called Bub3-Bub1^R314A mutant; Bub3–Bub1^R314A
T3 sequence (looked up) 1: T2 sequence (P41695 289-359) with R26A
T3 sequence (looked up) 2: T2 sequence (P26449 1-341)

[5] = biological target: T4, Bub1^289–359–R314A–Bub3 complex (S. cerevisiae, UniProt P41695 289-359; P26449 1-341, R314A); assay: ITC
T4 sequence 1: T2 sequence (P41695 289-359) with R26A
T4 sequence 2: T2 sequence (P26449 1-341)

[6] = biological target: T5, Bub1^289–359–Bub3^R239A complex (S. cerevisiae, UniProt P41695 289-359; P26449 1-341, R239A); assay: ITC; 25°C, MicroCal ITC200; 20 mM Tris pH7.5, 150 mM NaCl, 1 mM DTE; Bub1^289–359–Bub3 in the cell at 30 µM, titrated with thirty-five 2-µl injections of peptide at 400 µM; single-site binding model; settings: both partners purified
T5 construct: Bub3, S. cerevisiae, full length, with R239A; also called R239A mutant; source: expressed and purified essentially like the wild type complex (E. coli, GSH-sepharose, PreScission cleavage, SEC)
T5 sequence (looked up) 1: T2 sequence (P41695 289-359)
T5 sequence (looked up) 2: T2 sequence (P26449 1-341) with R239A

[7] = biological target: T3, Bub1^289–359–R314A–Bub3 complex; assay: as above; settings: both partners purified
[8] = biological target: T6, Bub1^289–359–Bub3^R217A complex (S. cerevisiae, UniProt P41695 289-359; P26449 1-341, R217A); assay: as above; settings: both partners purified
T6 construct: Bub3, S. cerevisiae, full length, with R217A; also called R217A mutant; source: expressed and purified essentially like the wild type complex (E. coli, GSH-sepharose, PreScission cleavage, SEC)
T6 sequence (looked up) 1: T2 sequence (P41695 289-359)
T6 sequence (looked up) 2: T2 sequence (P26449 1-341) with R217A

[9] = biological target: T7, Bub3 (S. cerevisiae) (S. cerevisiae, UniProt P26449 1-341); assay: as above; settings: both partners purified
T7 construct: Bub3, S. cerevisiae, full length (7-bladed WD40 beta-propeller); The methods tell the construct only for Bub3 co-expressed with Bub1; also called ScBub3; purified Bub3; source: Bub3 alone: purified, expression not described
T7 sequence (looked up): T2 sequence (P26449 1-341)

T1 sequence (P41695 289-359 R314A, one chain of several): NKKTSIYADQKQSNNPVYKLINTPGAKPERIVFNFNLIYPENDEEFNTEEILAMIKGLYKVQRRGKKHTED

In the case of “MELT4^P peptide (phosphorylated fourth MELT repeat of Spc105/Knl1)”, the Kd [1] is reported as 1300 nM.

“MELT2^P peptide (phosphorylated second MELT repeat of Spc105/Knl1)” showed a Kd [1] of 200 nM.

For DTVEGEPIDL{PTHR}EYESKPYVPN [MELT4^P], the “fold reduction in binding affinity” value [2] was “threefold” and the “binding (in words)” value [3] was “no binding”.

In the case of “GGGPA{pTHR}PKKAKKL [H1^P, Histone H1-derived phosphorylated peptide GGGPA{pTHR}PKKAKKL, AnaSpec catalog number 61741, reference compound]”, the “binding (in words)” value [3] is reported as “No binding” and the “binding (in words)” value ([3]; listed as unrelated phospho-peptide) is reported as “did not show any binding affinity”.

B1: MELT4^P peptide (phosphorylated fourth MELT repeat of Spc105/Knl1) (peptide)
peptide: DTVEGEPIDL[pT]EYESKPYVPN
notes: Spc105/Knl1, S. cerevisiae, fourth MELT repeat; also called fourth MELT^P peptide; source: synthetic peptide, custom made by GeneScript (95% purity)
With B1 the “fold decrease in affinity against wild type Bub3–Bub1” value [4] was ~3 fold.

DPTSMEM[pT]EVFPRSIRQKN (not fully specified) was tested, and the Kd [5] was 790 nM.

B2: MELT2^P peptide (phosphorylated second MELT repeat of Spc105/Knl1) (peptide)
peptide: DPTSMEM[pT]EVFPRSIRQKN
notes: Spc105/Knl1, S. cerevisiae, second MELT repeat with four residues before and eleven after; Met169, Glu170, Met171, P-Thr172, Phe175 are the printed numbers; The end groups are told only for the peptide used for crystallisation; also called MELT^P peptide; Spc105/Knl1 phosphopeptide; source: synthetic peptide, custom made by GeneScript (95% purity)
In the case of B2, the Kd [6] is reported as 5000 nM, the “fold reduction in binding affinity against wild type Bub1^289–359–Bub3” value [7] is reported as ~4 fold and the Kd [8] is reported as 2700 nM. The Kd [9] was 2000 nM.
